Data from patent publication US20200390902A1, “Antibody-Drug Conjugates Targeted at Human Aspartyl-(Asparaginyl)-B-Hydroxylase (HAAH)” (Panacea Pharmaceuticals, Inc., priority 2017, published 2020).

Columns and labels:
H460 lysate = assay: ELISA on plates coated with H460 lysate, percent of loading amount bound
HAAH catalytic domain [1] = target: T1, HAAH catalytic domain (human, UniProt Q12797); assay: ELISA on plates coated with HAAH catalytic domain; [Protein] 11.1 mg/ml
T1 sequence: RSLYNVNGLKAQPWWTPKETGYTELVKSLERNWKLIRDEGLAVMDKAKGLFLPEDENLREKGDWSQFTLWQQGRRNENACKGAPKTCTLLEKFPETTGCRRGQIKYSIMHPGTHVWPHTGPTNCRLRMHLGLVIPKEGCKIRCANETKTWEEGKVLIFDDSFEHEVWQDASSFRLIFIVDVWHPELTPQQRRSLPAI

HAAH catalytic domain [2] = target: T1, HAAH catalytic domain; assay: ELISA on plates coated with HAAH catalytic domain
Description: The catalytic domain of HAAH (HAAH-cat) is exposed at the surface of HAAH-expressing cancer cells. The binding of SNS622-MC-DM1 at different drug-antibody ratio (DAR) and pH to HAAH-cat was measured using IgG1λ as control. The plates were coated with HAAH by treating with […] HAAH catalytic domain overnight. Following blocking with 1% Non-Fat Dry Milk in PBS for one hour, the plates were incubated for 45 minutes at 37° C. with 11.1 mg/ml IgG1λ; 9.6 mg/ml SNS622; 4.8 mg/ml SNS622-MC-DM1 at DAR 2.5, pH 7.0; 5.9 mg/ml SNS622-MC-DM1 at DAR 2.5, pH8.0; 6.1 mg/ml SNS622-DM1 at DAR 5.0, pH 7.0; 5.7 mg/ml SNS622-MC-DM1 at DAR 5.0, pH8.0; 4.1 mg/ml SNS622-DM1 at DAR 10.0, pH7.0; or 4.4 mg/ml SNS622-MC-DM1 at DAR 10.0, pH8.0. Following 5 PBS rinses the plates were incubated with 1:100 goat anti-human IgG (8)-HRP for 30 minutes at 37° C., Following five PBS rinses TMB substrate was added, and after a 15-minute incubation at room temperature, Stop solution was added to terminate the reactions. The plates were read at 450 nm using a 96-well plate reader (ELx808, BioTek). The binding results are shown below in Table VI

[3] = target: Human aspartyl (asparaginyl) β-hydroxylase (HAAH) (human) (UniProt Q12797)
[4] = target: Human aspartyl (asparaginyl) β-hydroxylase (HAAH) (human) (UniProt Q12797); remark: listed apart in the source
[5] = target: Human aspartyl (asparaginyl) β-hydroxylase (HAAH) (human) (UniProt Q12797); remark: listed apart in the source
[6] = target: T2, Human aspartyl (asparaginyl) β-hydroxylase (HAAH) (human, UniProt Q12797); assay: immunoassay on fixed H460 cells; printed as 'binding affinities'
T2 sequence: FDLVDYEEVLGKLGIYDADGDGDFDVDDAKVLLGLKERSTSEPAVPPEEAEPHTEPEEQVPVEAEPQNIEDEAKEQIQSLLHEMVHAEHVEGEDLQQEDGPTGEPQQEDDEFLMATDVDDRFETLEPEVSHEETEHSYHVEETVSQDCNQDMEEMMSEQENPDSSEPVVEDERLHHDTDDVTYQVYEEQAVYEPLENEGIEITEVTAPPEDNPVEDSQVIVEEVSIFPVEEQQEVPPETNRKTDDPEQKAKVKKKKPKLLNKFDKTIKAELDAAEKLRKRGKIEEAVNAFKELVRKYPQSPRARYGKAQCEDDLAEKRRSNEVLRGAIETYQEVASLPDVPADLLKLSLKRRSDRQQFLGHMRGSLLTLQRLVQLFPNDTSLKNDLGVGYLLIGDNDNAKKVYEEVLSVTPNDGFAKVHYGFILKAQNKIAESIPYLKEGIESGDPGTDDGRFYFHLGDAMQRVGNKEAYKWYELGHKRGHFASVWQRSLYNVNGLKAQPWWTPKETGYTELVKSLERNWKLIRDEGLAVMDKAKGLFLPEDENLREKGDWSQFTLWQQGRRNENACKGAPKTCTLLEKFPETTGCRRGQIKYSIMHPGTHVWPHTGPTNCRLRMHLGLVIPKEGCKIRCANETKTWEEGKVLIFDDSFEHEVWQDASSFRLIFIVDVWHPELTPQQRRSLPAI

[7] = target: Human aspartyl (asparaginyl) β-hydroxylase (HAAH) (human) (UniProt Q12797); remark: listed apart in the source
[8] = target: Human aspartyl (asparaginyl) β-hydroxylase (HAAH) (human) (UniProt Q12797); remark: listed apart in the source
[9] = target: T2, Human aspartyl (asparaginyl) …; assay: cell-based or functional assay

IgG1λ-MC-DM1 (non-specific ADC) (antibody)
Percent binding (H460 lysate): < 0.002%

IgG1λ (non-specific monoclonal antibody)
[Average]* (HAAH catalytic domain [1]): < 0.001 mg/mL | Percent binding (H460 lysate): < 0.002% | % Binding (HAAH catalytic domain [2]): 0.01%

B1: SNS622-MC-DM1 (antibody, V domains shown)
VH: QVQLQQSGPGLVKPSQTLSLTCAISGDSVSSNSAAWNWIRQSPSRGLEWLGRTYYRSKWYNDYAVSVKSRITINPDTSKNQFSLQLNSVTPEDTAVYYCARTGYSSSWVVNFDYWGQGTLVTVSS
VL: QPVLTQSPSASGTPGQRVTISCSGSSSNIGSNYVYWYQQLPGTAPKLLIYKNNQRPSGVPDRFSGSKSGTAASLAISGLQSEDEADYYCAAWDDSLRGYVFGTGTKLTVLG
modifications: MC-DM1 (maleimidocaproyl-mertansine) on cysteine thiols of reduced disulfide bonds, positions not given; MC-DM1 (maleimidocaproyl-mertansine) on cysteine thiols of reduced disulfide bonds, positions not given
LDH release, H460 cells, 32 nM, 72 h (× (over untreated H460 cells)) [3]: 39 | IC50 of MTS, H460 cells, 72 h [4]: 64 nM | LC50 of LDH, H460 cells, 72 h [4]: 36 nM | EC50, H460 cell viability, MTS assay, 24 h [5]: 15 nM | Kd [6]: ~0.1 nM | MTS assay, MIA-PaCa-2 ASPH cells, 10, 20 or 50 nM, 48 h (% reduction of relative absorbance) [7]: 16 | Percent binding (H460 lysate): 107%

B2: SNS622-DM1A1 (antibody, V domains shown)
VH: QVQLQQSGPGLVKPSQTLSLTCAISGDSVSSNSAAWNWIRQSPSRGLEWLGRTYYRSKWYNDYAVSVKSRITINPDTSKNQFSLQLNSVTPEDTAVYYCARTGYSSSWVVNFDYWGQGTLVTVSS
VL: QPVLTQSPSASGTPGQRVTISCSGSSSNIGSNYVYWYQQLPGTAPKLLIYKNNQRPSGVPDRFSGSKSGTAASLAISGLQSEDEADYYCAAWDDSLRGYVFGTGTKLTVLG
modifications: MC-DM1 on cysteine thiols of reduced disulfide bonds, positions not given; reaction DAR 2.5:1, pH 7, final DAR 2.00; MC-DM1 on cysteine thiols of reduced disulfide bonds, positions not given
% Binding (HAAH catalytic domain [2]): 75.1%

B3: SNS622-MC-vc-PAB-MMAE (antibody, V domains shown)
VH: QVQLQQSGPGLVKPSQTLSLTCAISGDSVSSNSAAWNWIRQSPSRGLEWLGRTYYRSKWYNDYAVSVKSRITINPDTSKNQFSLQLNSVTPEDTAVYYCARTGYSSSWVVNFDYWGQGTLVTVSS
VL: QPVLTQSPSASGTPGQRVTISCSGSSSNIGSNYVYWYQQLPGTAPKLLIYKNNQRPSGVPDRFSGSKSGTAASLAISGLQSEDEADYYCAAWDDSLRGYVFGTGTKLTVLG
modifications: MC-vc-PAB-MMAE on cysteine thiols of reduced disulfide bonds, positions not given; reaction DAR 10:1, final DAR 6.31; MC-vc-PAB-MMAE on cysteine thiols of reduced disulfide bonds, positions not given
IC50, MOLM-14 cell viability, MTS assay, 24 h [8]: 50 nM | EC50, H460 cell viability, MTS assay, 24 h [5]: 60 nM | Kd [6]: ~0.2 nM

B4: SNS622-MC-MMAE (antibody, V domains shown)
VH: QVQLQQSGPGLVKPSQTLSLTCAISGDSVSSNSAAWNWIRQSPSRGLEWLGRTYYRSKWYNDYAVSVKSRITINPDTSKNQFSLQLNSVTPEDTAVYYCARTGYSSSWVVNFDYWGQGTLVTVSS
VL: QPVLTQSPSASGTPGQRVTISCSGSSSNIGSNYVYWYQQLPGTAPKLLIYKNNQRPSGVPDRFSGSKSGTAASLAISGLQSEDEADYYCAAWDDSLRGYVFGTGTKLTVLG
modifications: MC-MMAE on cysteine thiols of reduced disulfide bonds, positions not given; reaction DAR 10:1 gives final DAR 5.72 (also made at 2.5:1 and 5:1); MC-MMAE on cysteine thiols of reduced disulfide bonds, positions not given
IC50 of MTS, H460 cells, 72 h [9]: 48 nM

B5: SNS622-DM1C2 (antibody, V domains shown)
VH: QVQLQQSGPGLVKPSQTLSLTCAISGDSVSSNSAAWNWIRQSPSRGLEWLGRTYYRSKWYNDYAVSVKSRITINPDTSKNQFSLQLNSVTPEDTAVYYCARTGYSSSWVVNFDYWGQGTLVTVSS
VL: QPVLTQSPSASGTPGQRVTISCSGSSSNIGSNYVYWYQQLPGTAPKLLIYKNNQRPSGVPDRFSGSKSGTAASLAISGLQSEDEADYYCAAWDDSLRGYVFGTGTKLTVLG
modifications: MC-DM1 on cysteine thiols of reduced disulfide bonds, positions not given; reaction DAR 10:1, pH 8, final DAR 5.81; MC-DM1 on cysteine thiols of reduced disulfide bonds, positions not given
% Binding (HAAH catalytic domain [2]): 80.5%
